Measured values reported in patent publication US20080292632A1 (US Dept. of Health and Human Services, published 2008).

Experiments:
Assay in all cases: FACS on transfected 293T (summary with IRTA-Fc ELISA, FIG. 2A and B)
[1] = target: T1, IRTA3, full-length, on transfected 293T cells (human, UniProt Q96P31 18-734)
T1 sequence: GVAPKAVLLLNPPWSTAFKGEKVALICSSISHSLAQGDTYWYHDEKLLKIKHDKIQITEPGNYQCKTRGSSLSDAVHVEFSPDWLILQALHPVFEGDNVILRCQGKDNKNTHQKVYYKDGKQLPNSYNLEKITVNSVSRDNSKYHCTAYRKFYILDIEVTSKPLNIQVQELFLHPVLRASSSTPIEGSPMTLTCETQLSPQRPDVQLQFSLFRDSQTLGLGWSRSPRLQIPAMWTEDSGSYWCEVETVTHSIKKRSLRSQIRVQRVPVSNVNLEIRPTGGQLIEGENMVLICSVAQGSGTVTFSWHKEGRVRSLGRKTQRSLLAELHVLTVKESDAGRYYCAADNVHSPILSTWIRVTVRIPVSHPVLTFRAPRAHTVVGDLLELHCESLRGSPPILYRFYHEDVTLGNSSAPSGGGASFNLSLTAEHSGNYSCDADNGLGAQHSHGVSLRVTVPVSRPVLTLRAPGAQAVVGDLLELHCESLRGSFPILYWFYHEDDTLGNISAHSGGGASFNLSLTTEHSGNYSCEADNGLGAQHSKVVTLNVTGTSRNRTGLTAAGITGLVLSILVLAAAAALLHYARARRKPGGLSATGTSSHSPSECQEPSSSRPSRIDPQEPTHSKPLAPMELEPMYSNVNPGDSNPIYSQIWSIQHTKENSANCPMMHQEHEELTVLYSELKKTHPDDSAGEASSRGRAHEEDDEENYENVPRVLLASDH
Protocol: (§1) FIGS. 2A-B are a bar graph and a set of plots showing the cross-reactivity of the anti-IRTA2 MAbs to other IRTA family members. FIG. 2A is a bar graph of the results from an ELISA of anti-IRTA2 MAbs to various Fc-fusion proteins. Each Fc-fusion protein indicated on the top of the column was captured on ELISA plates using secondary antibody (goat anti-human IgG). After washing, 100 ng/50 μl/well of MAbs were added, followed by HRP-labeled goat anti-mouse IgG and TMBZ substrate. The signals in ELISA were normalized for the amounts of each Fc-fusion protein on the plates using HRP-goat anti-human Fc. The controls are MAbs 9E10 (anti-myc tag, IgG1), BerH2 (anti-CD30, IgG1), T408 (anti-CD30, IgG2a), T420 (anti-CD30, IgG2b) and HRP-goat anti-human Fc (1/2400 dilution). […] Two days after transfection, the cells were harvested and incubated with 200 ng/100 μl of each MAb, followed by PE-conjugated goat anti-mouse IgG F(ab′)2. […] In the positive control panels, the MAbs cross-reactive to other IRTAs were used. They are F26 (anti-IRTA1 and anti-IRTA2, IgG2b), F109 (anti-IRTA3, IgG2b), F47 (anti-IRTA4, IgG2a), and F69 (anti-IRTA5, IgG2a). BerH2 (anti-CD30, IgG1) was also used. “+” indicates more than 1.5-fold than that of the control; “++” indicates more than 10-fold mean fluorescence intensity than that of the negative control.

[2] = target: T2, IRTA5, full-length, on transfected 293T cells (human, UniProt Q96LA6 17-429)
T2 sequence: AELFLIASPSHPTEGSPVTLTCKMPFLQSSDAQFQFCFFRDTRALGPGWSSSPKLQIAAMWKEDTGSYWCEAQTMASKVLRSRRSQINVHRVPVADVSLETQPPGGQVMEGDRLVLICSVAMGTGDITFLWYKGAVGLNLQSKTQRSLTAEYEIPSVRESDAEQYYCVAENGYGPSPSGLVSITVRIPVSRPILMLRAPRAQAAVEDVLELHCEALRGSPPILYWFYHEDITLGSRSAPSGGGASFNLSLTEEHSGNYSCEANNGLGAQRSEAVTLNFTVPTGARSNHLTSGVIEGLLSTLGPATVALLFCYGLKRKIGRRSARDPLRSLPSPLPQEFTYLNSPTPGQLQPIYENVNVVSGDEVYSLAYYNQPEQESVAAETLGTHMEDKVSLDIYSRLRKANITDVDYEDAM
Protocol: as §1

[3] = target: T3, IRTA1, full-length, on transfected 293T cells (human, UniProt Q96PJ5 20-515)
T3 sequence: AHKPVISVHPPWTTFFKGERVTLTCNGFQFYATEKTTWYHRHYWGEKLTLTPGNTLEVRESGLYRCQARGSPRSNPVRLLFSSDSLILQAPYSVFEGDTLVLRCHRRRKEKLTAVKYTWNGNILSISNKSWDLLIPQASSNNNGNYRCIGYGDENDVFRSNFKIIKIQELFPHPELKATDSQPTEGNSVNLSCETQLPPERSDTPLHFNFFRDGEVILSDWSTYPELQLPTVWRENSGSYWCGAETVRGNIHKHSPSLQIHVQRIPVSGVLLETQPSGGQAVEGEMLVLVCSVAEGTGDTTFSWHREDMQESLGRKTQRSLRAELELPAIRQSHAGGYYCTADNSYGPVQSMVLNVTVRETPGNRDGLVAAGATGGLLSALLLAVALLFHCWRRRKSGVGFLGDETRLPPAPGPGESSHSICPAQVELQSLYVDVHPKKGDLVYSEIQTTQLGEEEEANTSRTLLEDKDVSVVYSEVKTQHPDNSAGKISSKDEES
Protocol: as §1

[4] = target: T4, IRTA4, full-length, on transfected 293T cells (human, UniProt Q96LA5 20-508)
T4 sequence: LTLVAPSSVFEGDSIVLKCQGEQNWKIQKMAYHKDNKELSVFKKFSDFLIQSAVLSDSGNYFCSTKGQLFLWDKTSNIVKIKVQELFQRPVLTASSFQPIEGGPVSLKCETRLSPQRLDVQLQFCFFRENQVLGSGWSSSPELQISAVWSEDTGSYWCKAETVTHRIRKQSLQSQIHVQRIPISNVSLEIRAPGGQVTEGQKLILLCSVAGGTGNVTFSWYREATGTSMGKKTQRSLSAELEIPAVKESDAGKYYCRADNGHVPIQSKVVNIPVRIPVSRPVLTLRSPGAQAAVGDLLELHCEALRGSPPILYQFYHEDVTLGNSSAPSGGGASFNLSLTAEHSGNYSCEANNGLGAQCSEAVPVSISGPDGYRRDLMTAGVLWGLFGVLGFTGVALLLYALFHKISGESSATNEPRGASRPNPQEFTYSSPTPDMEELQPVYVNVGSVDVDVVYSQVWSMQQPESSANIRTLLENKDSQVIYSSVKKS
Protocol: as §1

Measured: binding result

B1: F25 (antibody, IgG2a, V domains shown)
VH: EVQLQQSGPELVKPGTSVKMSCKASGYSFTGYFMNWMMQNHGKSLEWIGRINLYNGDTFYNQKFKDKATLTVDKSSNTVHMEFRSLASEDSAVYYCASSLYYFDYWGQGTTFTVSS
VL: DIVMTQSHKFMSTSVGDRVNITCKASQDVGTNVAWYQQKPGQSPKLLIYWASTRQTGVPDRFTGSGSGTDFTLTISNVQSEDLSDYFCQQYSSYPLTFGAGTKLELKR
notes: mouse hybridoma MAb, IgG2a, kappa; also called MAb F25; biotin-MAb F25
no binding: [1] | [2] | [3] | [4]
